B1: YES1, spotted on the ProtoArray (enzyme)
chain: not shown
notes: human YES1 kinase; not shown: GST, N-terminal, kept
B2: S100 calcium-binding protein B, spotted on the ProtoArray (natural protein, human, UniProt P04271 1-92, looked up)
chain: MSELEKAMVALIDVFHQYSGREGDKHKLKKSELKELINNELSHFLEEIKEQEVVDKVMETLDNDGDGECDFQEFMAFVAMVTTACHEFFEHE
notes: also called S100β; not shown: GST, N-terminal, kept
B3: RPS6KA6, spotted on the ProtoArray (enzyme, human, UniProt Q9UK32 1-745, looked up)
chain: MLPFAPQDEPWDREMEVFSGGGASSGEVNGLKMVDEPMEEGEADSCHDEGVVKEIPITHHVKEGYEKADPAQFELLKVLGQGSFGKVFLVRKKTGPDAGQLYAMKVLKKASLKVRDRVRTKMERDILVEVNHPFIVKLHYAFQTEGKLYLILDFLRGGDVFTRLSKEVLFTEEDVKFYLAELALALDHLHQLGIVYRDLKPENILLDEIGHIKLTDFGLSKESVDQEKKAYSFCGTVEYMAPEVVNRRGHSQSADWWSYGVLMFEMLTGTLPFQGKDRNETMNMILKAKLGMPQFLSAEAQSLLRMLFKRNPANRLGSEGVEEIKRHLFFANIDWDKLYKREVQPPFKPASGKPDDTFCFDPEFTAKTPKDSPGLPASANAHQLFKGFSFVATSIAEEYKITPITSANVLPIVQINGNAAQFGEVYELKEDIGVGSYSVCKRCIHATTNMEFAVKIIDKSKRDPSEEIEILMRYGQHPNIITLKDVFDDGRYVYLVTDLMKGGELLDRILKQKCFSEREASDILYVISKTVDYLHCQGVVHRDLKPSNILYMDESASADSIRICDFGFAKQLRGENGLLLTPCYTANFVAPEVLMQQGYDAACDIWSLGVLFYTMLAGYTPFANGPNDTPEEILLRIGNGKFSLSGGNWDNISDGAKDLLSHMLHMDPHQRYTAEQILKHSWITHRDQLPNDQPKRNDVSHVVKGAMVATYSALTHKTFQPVLEPVAASSLAQRRSMKKRTSTGL
notes: human RPS6KA6 kinase; not shown: GST, N-terminal, kept

Target: T1, recombinant human full-length tau protein (htau40) (human, UniProt P10636-8 1-441)
T1 construct: human microtubule-associated protein tau, longest CNS splicing variant 2N4R (htau40); also called recombinant htau40; 2N4R; source: E. coli-derived recombinant protein
Experiment: peptide or protein array; ProtoArray Human Protein Microarrays v5.1, ~9000 N-terminal GST-tagged human proteins spotted on nitrocellulose-coated slides; htau40 at 5 and 50 ng/μl in probe buffer (1x PBS, 0.1% Tween-20, 1x synthetic block), 90 min at 4 °C; detected with anti-tau K9JA and Alexa Fluor 647 secondary antibody
Conditions: both partners purified

Binding result, binds:
B1
B2
B3

From paper PMC8956953 (The Journal of Biological Chemistry, 2022)
